# Laboratory results published in article PMC5870055, “Structural and Mechanistic Analysis of the Choline Sulfatase from Sinorhizobium melliloti: A Class I Sulfatase Specific for an Alkyl Sulfate Ester” (Journal of Molecular Biology, 2018).
# T1: SmCS (Sinorhizobium meliloti choline sulfatase, BetC) (Sinorhizobium meliloti, UniProt O69787)
# T1 sequence (O69787 1-512): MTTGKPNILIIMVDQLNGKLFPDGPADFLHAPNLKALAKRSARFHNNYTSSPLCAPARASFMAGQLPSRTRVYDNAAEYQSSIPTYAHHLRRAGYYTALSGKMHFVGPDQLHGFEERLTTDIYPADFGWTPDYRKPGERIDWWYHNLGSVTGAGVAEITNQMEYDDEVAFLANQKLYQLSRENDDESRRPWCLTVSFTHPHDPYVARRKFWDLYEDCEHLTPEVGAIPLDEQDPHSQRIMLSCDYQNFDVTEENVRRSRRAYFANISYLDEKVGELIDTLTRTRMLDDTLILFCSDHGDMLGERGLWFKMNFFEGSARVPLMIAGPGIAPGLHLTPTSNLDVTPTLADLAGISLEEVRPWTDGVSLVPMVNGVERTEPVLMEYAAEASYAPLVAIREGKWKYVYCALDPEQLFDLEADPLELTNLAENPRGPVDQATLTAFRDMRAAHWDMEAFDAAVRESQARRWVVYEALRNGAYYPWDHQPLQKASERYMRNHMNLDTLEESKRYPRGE
# Legend:
# [1] = target: T1, SmCS (Sinorhizobium meliloti choline sulfatase, BetC); test: product inhibition kinetics; format: biochemical; settings: competitive; range over the pH values tested, single values in Fig. S11; 25 °C
# Excerpt: product inhibition kinetics on SmCS (Sinorhizobium meliloti choline sulfatase, BetC) | The reaction product choline can act as a competitive inhibitor, albeit a relatively weak one
# [2] = test system: O=[N+]([O-])c1ccc(OS(=O)(=O)O)cc1; test: purified protein; settings: 100 mM Tris-HCl pH 7.6, 25 °C
# [3] = test system: C[N+](C)(C)CCOS(=O)(=O)[O-]; test: purified protein; settings: pH 7.6; 25.0 °C
# purified protein [4] = substrate: C[N+](C)(C)CCOP(=O)([O-])O; test: purified protein; settings: 100 mM Tris-HCl pH 7.6, 25 °C, no metal added
# purified protein [5] = substrate: C[N+](C)(C)CCOS(=O)(=O)[O-]; test: purified protein; settings: 100 mM Tris-HCl pH 7.6, 25 °C
# purified protein [6] = substrate: COP(=O)(O)Oc1ccc([N+](=O)[O-])cc1; test: purified protein; settings: 100 mM imidazole-HCl pH 6.0, 25 °C
# purified protein [7] = substrate: O=[N+]([O-])c1ccc(OS(=O)(=O)O)cc1; test: purified protein
# [8] = 100 mM imidazole-HCl pH 6.0, 25 °C
# [9] = 100 mM Tris-HCl pH 7.6, 25 °C, made without FGE
molecule,measurement,setting,value
C[N+](C)(C)CCO [choline],KIC,[1],~ 52–6.3 mM
"SmCS (Sinorhizobium meliloti choline sulfatase, BetC) (Sinorhizobium meliloti 1021; DEL501-512)",Km,[2],(9.0 ± 0.1) × 10^-2 M
same,kcat,[2],0.0159 ± 0.0001 s⁻¹
same,kcat/Km,[2],0.178 ± 0.004 M⁻¹ s⁻¹
same,Km,[3],(1.09 ± 0.01) × 10^-2 M
same,kcat,[3],0.021 ± 0.002 s⁻¹
same,kcat/Km,[3],1.93 ± 0.01 M⁻¹ s⁻¹
"SmCS (Sinorhizobium meliloti choline sulfatase, BetC) (Sinorhizobium meliloti 1021) (protein) MTTGKPNILIIMVDQLNGKLFPDGPADFLHAPNLKALAKRSARFHNNYTSSPLCAPARASFMAGQLPSRTRVYDNAAEYQSSIPTYAHHLRRAGYYTALSGKMHFVGPDQLHGFEERLTTDIYPADFGWTPDYRKPGERIDWWYHNLGSVTGAGVAEITNQMEYDDEVAFLANQKLYQLSRENDDESRRPWCLTVSFTHPHDPYVARRKFWDLYEDCEHLTPEVGAIPLDEQDPHSQRIMLSCDYQNFDVTEENVRRSRRAYFANISYLDEKVGELIDTLTRTRMLDDTLILFCSDHGDMLGERGLWFKMNFFEGSARVPLMIAGPGIAPGLHLTPTSNLDVTPTLADLAGISLEEVRPWTDGVSLVPMVNGVERTEPVLMEYAAEASYAPLVAIREGKWKYVYCALDPEQLFDLEADPLELTNLAENPRGPVDQATLTAFRDMRAAHWDMEAFDAAVRESQARRWVVYEALRNGAYYPWDHQPLQKASERYMRNHMNLDTLEESKRYPRGE",Km,purified protein [4],(2.1 ± 0.2) × 10^-3 M
same,kcat,purified protein [4],0.0267 ± 0.0001 s⁻¹
same,kcat/Km,purified protein [4],13 ± 1 M⁻¹ s⁻¹
same,Km,purified protein [5]; no metal added,(5.0 ± 0.6) × 10^-4 M
same,kcat,purified protein [5]; no metal added,2.4 ± 0.2 s⁻¹
same,kcat/Km,purified protein [5]; no metal added,4800 ± 500 M⁻¹ s⁻¹
same,kcat,purified protein [6],> 0.004 s⁻¹
same,Km,purified protein [7]; [8],(1.9 ± 0.2) × 10^-2 M
same,kcat,purified protein [7]; [8],0.22 ± 0.01 s⁻¹
same,kcat/Km,purified protein [7]; [8],12 ± 2 M⁻¹ s⁻¹
"SmCS (Sinorhizobium meliloti choline sulfatase, BetC) (Sinorhizobium meliloti 1021; H104A) (protein) MTTGKPNILIIMVDQLNGKLFPDGPADFLHAPNLKALAKRSARFHNNYTSSPLCAPARASFMAGQLPSRTRVYDNAAEYQSSIPTYAHHLRRAGYYTALSGKMAFVGPDQLHGFEERLTTDIYPADFGWTPDYRKPGERIDWWYHNLGSVTGAGVAEITNQMEYDDEVAFLANQKLYQLSRENDDESRRPWCLTVSFTHPHDPYVARRKFWDLYEDCEHLTPEVGAIPLDEQDPHSQRIMLSCDYQNFDVTEENVRRSRRAYFANISYLDEKVGELIDTLTRTRMLDDTLILFCSDHGDMLGERGLWFKMNFFEGSARVPLMIAGPGIAPGLHLTPTSNLDVTPTLADLAGISLEEVRPWTDGVSLVPMVNGVERTEPVLMEYAAEASYAPLVAIREGKWKYVYCALDPEQLFDLEADPLELTNLAENPRGPVDQATLTAFRDMRAAHWDMEAFDAAVRESQARRWVVYEALRNGAYYPWDHQPLQKASERYMRNHMNLDTLEESKRYPRGE",Km,purified protein [5],(1.33 ± 0.01) × 10^-2 M
same,kcat,purified protein [5],0.0347 ± 0.0001 s⁻¹
same,kcat/Km,purified protein [5],2.6 ± 0.02 M⁻¹ s⁻¹
"SmCS (Sinorhizobium meliloti choline sulfatase, BetC) (Sinorhizobium meliloti 1021; C54S) (protein) MTTGKPNILIIMVDQLNGKLFPDGPADFLHAPNLKALAKRSARFHNNYTSSPLSAPARASFMAGQLPSRTRVYDNAAEYQSSIPTYAHHLRRAGYYTALSGKMHFVGPDQLHGFEERLTTDIYPADFGWTPDYRKPGERIDWWYHNLGSVTGAGVAEITNQMEYDDEVAFLANQKLYQLSRENDDESRRPWCLTVSFTHPHDPYVARRKFWDLYEDCEHLTPEVGAIPLDEQDPHSQRIMLSCDYQNFDVTEENVRRSRRAYFANISYLDEKVGELIDTLTRTRMLDDTLILFCSDHGDMLGERGLWFKMNFFEGSARVPLMIAGPGIAPGLHLTPTSNLDVTPTLADLAGISLEEVRPWTDGVSLVPMVNGVERTEPVLMEYAAEASYAPLVAIREGKWKYVYCALDPEQLFDLEADPLELTNLAENPRGPVDQATLTAFRDMRAAHWDMEAFDAAVRESQARRWVVYEALRNGAYYPWDHQPLQKASERYMRNHMNLDTLEESKRYPRGE",Km,purified protein [5]; made without FGE,(9.4 ± 0.1) × 10^-3 M
same,kcat,purified protein [5]; made without FGE,0.0112 ± 0.0002 s⁻¹
same,kcat/Km,purified protein [5]; made without FGE,1.19 ± 0.02 M⁻¹ s⁻¹
same,Km,purified protein [7]; [9],(3.9 ± 0.2) × 10^-2 M
same,kcat,purified protein [7]; [9],7.3e-05 ± 1e-06 s⁻¹
same,kcat/Km,purified protein [7]; [9],0.00189 ± 6e-05 M⁻¹ s⁻¹
"SmCS (Sinorhizobium meliloti choline sulfatase, BetC) (Sinorhizobium meliloti 1021; K309L) (protein) MTTGKPNILIIMVDQLNGKLFPDGPADFLHAPNLKALAKRSARFHNNYTSSPLCAPARASFMAGQLPSRTRVYDNAAEYQSSIPTYAHHLRRAGYYTALSGKMHFVGPDQLHGFEERLTTDIYPADFGWTPDYRKPGERIDWWYHNLGSVTGAGVAEITNQMEYDDEVAFLANQKLYQLSRENDDESRRPWCLTVSFTHPHDPYVARRKFWDLYEDCEHLTPEVGAIPLDEQDPHSQRIMLSCDYQNFDVTEENVRRSRRAYFANISYLDEKVGELIDTLTRTRMLDDTLILFCSDHGDMLGERGLWFLMNFFEGSARVPLMIAGPGIAPGLHLTPTSNLDVTPTLADLAGISLEEVRPWTDGVSLVPMVNGVERTEPVLMEYAAEASYAPLVAIREGKWKYVYCALDPEQLFDLEADPLELTNLAENPRGPVDQATLTAFRDMRAAHWDMEAFDAAVRESQARRWVVYEALRNGAYYPWDHQPLQKASERYMRNHMNLDTLEESKRYPRGE",Km,"purified protein [7]; 100 mM Tris-HCl pH 7.6, 25 °C",(8.9 ± 2.7) × 10^-2 M
same,kcat,"purified protein [7]; 100 mM Tris-HCl pH 7.6, 25 °C",1.6e-05 ± 5e-06 s⁻¹
same,kcat/Km,"purified protein [7]; 100 mM Tris-HCl pH 7.6, 25 °C",0.000176 ± 1e-06 M⁻¹ s⁻¹
"SmCS (Sinorhizobium meliloti choline sulfatase, BetC) (Sinorhizobium meliloti 1021; E386L) (protein) MTTGKPNILIIMVDQLNGKLFPDGPADFLHAPNLKALAKRSARFHNNYTSSPLCAPARASFMAGQLPSRTRVYDNAAEYQSSIPTYAHHLRRAGYYTALSGKMHFVGPDQLHGFEERLTTDIYPADFGWTPDYRKPGERIDWWYHNLGSVTGAGVAEITNQMEYDDEVAFLANQKLYQLSRENDDESRRPWCLTVSFTHPHDPYVARRKFWDLYEDCEHLTPEVGAIPLDEQDPHSQRIMLSCDYQNFDVTEENVRRSRRAYFANISYLDEKVGELIDTLTRTRMLDDTLILFCSDHGDMLGERGLWFKMNFFEGSARVPLMIAGPGIAPGLHLTPTSNLDVTPTLADLAGISLEEVRPWTDGVSLVPMVNGVERTEPVLMEYAALASYAPLVAIREGKWKYVYCALDPEQLFDLEADPLELTNLAENPRGPVDQATLTAFRDMRAAHWDMEAFDAAVRESQARRWVVYEALRNGAYYPWDHQPLQKASERYMRNHMNLDTLEESKRYPRGE",kcat,purified protein [5],> 0.012 s⁻¹
same,kcat/Km,purified protein [5],0.81 ± 0.01 M⁻¹ s⁻¹
same,Km,"purified protein [7]; 100 mM Tris-HCl pH 7.6, 25 °C",(5.7 ± 0.4) × 10^-2 M
same,kcat,"purified protein [7]; 100 mM Tris-HCl pH 7.6, 25 °C",0.76 ± 0.03 s⁻¹
same,kcat/Km,"purified protein [7]; 100 mM Tris-HCl pH 7.6, 25 °C",13 ± 1 M⁻¹ s⁻¹
